From patent US20100061996 come the findings set out here.

This series has as its target pro-uPA (pro-urokinase-type plasminogen activator, single-chain zymogen form of uPA) (UniProt P00749).

Chain of soluble His-tagged hepsin comprising the entire extracellular domain of human hepsin (Arg45-Leu417) (chain, as listed by the source): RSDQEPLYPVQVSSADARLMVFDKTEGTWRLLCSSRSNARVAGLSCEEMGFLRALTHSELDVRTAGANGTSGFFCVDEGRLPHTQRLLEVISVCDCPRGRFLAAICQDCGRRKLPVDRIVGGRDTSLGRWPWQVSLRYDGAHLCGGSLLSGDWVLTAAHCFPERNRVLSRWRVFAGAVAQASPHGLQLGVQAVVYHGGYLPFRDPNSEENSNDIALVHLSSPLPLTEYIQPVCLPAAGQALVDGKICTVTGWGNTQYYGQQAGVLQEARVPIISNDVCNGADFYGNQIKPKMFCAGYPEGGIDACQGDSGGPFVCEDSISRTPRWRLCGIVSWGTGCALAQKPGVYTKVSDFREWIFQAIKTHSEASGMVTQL

As to “soluble His-tagged hepsin comprising the entire extracellular domain of human hepsin (Arg45-Leu417)”, the “cleavage of pro-uPA (SDS-PAGE, 1.5 uM pro-uPA, 15 nM hepsin)” value was “Incubation of pro-uPA with hepsin resulted in a time-dependent cleavage of the single-chain form into the two-chain form”; the k (first-order rate constant of pro-uPA activation) was found to be 0.0871 min⁻¹; the kcat/Km of pro-uPA activation turned out to be 484000 M⁻¹ s⁻¹.
